Laboratory results taken from patent US20140147868A1 (published 2014).
Positions of bridges follow the written chain, without caps; N, C: chain ends. No end group written: not given here.

B2: monoclonal antibody TC2 (antibody, mouse IgG1, V domains shown)
VH: QVQLKQSGPGLLQPSQSLSITCTVSGFSLTYYGVHWVRQSPVKGLEWLGVIWSGGDTDYDTTFISRLSISKDNSKGQVFFKMTSLQTDDTAIYYCARGRTYGIHFDYWGQGTTLTVSS
VL: DIVMSQSPSSLAVSVGEKVTMSCKSSQSLFNSRTRKNYLAWYQQKPGQSPKVLIYWASTRESGVPDRFTGSGSGTDFTLTISSVQAEDLAIYYCKQFYDLWTFGGGTKLEIKR
notes: also called mAb TC2; ECACC 02110742

Legend:
monoclonal antibody 3-9 = target: T1, monoclonal antibody 3-9; experiment: SPR, mAb 3-9 immobilised, phagemid injected
T1 construct: Antibody from State University of New York; also called mAb 3-9
Experimental: (§1) The carboxylated surface of the a dextran coated CM5 chip (Biacore, Sweden) was activated according to protocol supplied by the manufacturer. In short 0.05M N-hydroxysuccinimide (NHS)/0.2 M N-ethyl-N′-[3-(dimethylamino)propyl]carbodiimide hydrochloride (EDC), was injected over the carboxylated chip at 10 μL/min for 7 min, then 50 μg/mL rabbit anti-mouse IgG polyclonal antibody in 10 mM acetate buffer, pH 5.0 is injected at 10 μL/min for 7 min, and finally the chip is blocked by injection of 1 M ethanolamine at 10 μL/min for 7 min. Immobilization of mouse monoclonal antibodies on the dextran coated chip was performed in the same way.
(§2) Antibodies were covalently immobilized on a dextran coated CM5 chip as described in Example 2. Phages were diluted 10-fold in HBS-EP and injected at 10 μL/min for 3 min. The amounts of phagemid bound was recorded in real time and expressed in response units (RU). To evaluate blocking by holoTC, 1 μM of holoTC was injected at 10 μL/min for 5 min prior to the injection of phagemids at 10 μL/min for 3 min. Inhibition was computed as the number of RU of phagemid bound to 3C4 with pretreatment with holoTC divided with the number of RU bound without pretreatment, times 100.

monoclonal antibody 3C4 [1] = target: T2, monoclonal antibody 3C4; experiment: phage ELISA, coated mAb 3C4, 10^9 phagemid per well
T2 construct: also called mAb 3C4; 3C4 (3CY)
Experimental: (§3) Microtitre plates were coated with 100 μL, 1 μg/mL mAb 3C4 or unrelated control antibody in PBS over night at 4 C. Remaining binding sites were blocked with 20 mg/mL bovine serum albumin (BSA) in PBS for 1 h. Some wells were only coated with BSA. Monoclonal packaged phagemids were added at a concentration of 10¹⁰ to 10⁸ cfu per well in PBS and incubated for 1 h. Preparations of packaged phagemids were centrifuged to remove aggregates. Wells were washed 6 times with PBS containing 0.1% Tween-20 and 3 times with PBS. For detection of bound phages 100 μL of horse-radish peroxidase (HRP) conjugated anti-[…] antibody (e.g. Pharmacia) diluted 1/5000 in PBS was added to each well and incubated for 1 h at ambient temperature. ELISA plates were washed 5 times with PBS containing 0.1% Tween-20 and 3 times with PBS. The chromogenic substrate o-Phenyldiamine in citric acid, pH 4.0 supplemented with H₂O₂ was added and the color generating reaction was stopped after 2-5 min by addition of 2 M H₂SO₄.
Target sequence in this assay (VH, as listed by the source, chain 1 of 2): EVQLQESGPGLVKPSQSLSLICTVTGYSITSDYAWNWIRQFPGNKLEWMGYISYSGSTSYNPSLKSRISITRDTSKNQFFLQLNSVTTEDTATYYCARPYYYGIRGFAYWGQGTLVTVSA
Target sequence in this assay (VL, as listed by the source, chain 2 of 2): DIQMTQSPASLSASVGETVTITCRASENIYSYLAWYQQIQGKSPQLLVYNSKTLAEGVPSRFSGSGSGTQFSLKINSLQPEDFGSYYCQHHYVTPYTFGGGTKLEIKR

monoclonal antibody 3C4 [2] = target: T2, monoclonal antibody 3C4; experiment: SPR, mAb 3C4 immobilised, phagemid injected
Experimental: as §1, §2
Target sequence in this assay (VH, as listed by the source): as the sequence (VH, as listed by the source, chain 1 of 2) above

monoclonal antibody 3C4 [3] = target: T2, monoclonal antibody 3C4; experiment: phage ELISA, coated mAb 3C4, 10^8 phagemid per well
Experimental: as §3
Target sequence in this assay (VH, as listed by the source, chain 1 of 2): as above
Target sequence in this assay (VL, as listed by the source, chain 2 of 2): as the sequence (VL, as listed by the source, chain 2 of 2) above

monoclonal antibody 3C4 [4] = target: T2, monoclonal antibody 3C4; experiment: SPR, phagemid bound to 3C4 after 1 uM holoTC (competitor)
Experimental: as §1, §2
Target sequence in this assay (VH, as listed by the source, chain 1 of 2): as the sequence (VH, as listed by the source, chain 1 of 2) above
Target sequence in this assay (VL, as listed by the source, chain 2 of 2): as the sequence (VL, as listed by the source, chain 2 of 2) above

monoclonal antibody 3C4 [5] = target: T2, monoclonal antibody 3C4; experiment: SPR, inhibition of phagemid binding to 3C4 by 1 uM holoTC (competitor)
Experimental: as §1, §2
Target sequence in this assay (VH, as listed by the source, chain 1 of 2): as the sequence (VH, as listed by the source, chain 1 of 2) above
Target sequence in this assay (VL, as listed by the source, chain 2 of 2): as the sequence (VL, as listed by the source, chain 2 of 2) above

monoclonal antibody 3C4 [6] = target: T2, monoclonal antibody 3C4; experiment: SPR, 3C4 immobilised, phagemid injected
Experimental: as §1, §2
Target sequence in this assay (VH, as listed by the source, chain 1 of 2): as the sequence (VH, as listed by the source, chain 1 of 2) above
Target sequence in this assay (VL, as listed by the source, chain 2 of 2): as the sequence (VL, as listed by the source, chain 2 of 2) above

monoclonal antibody 3C4 [7] = target: T2, monoclonal antibody 3C4; experiment: phage ELISA, coated mAb 3C4, 10^10 phagemid per well
Experimental: as §3

[8] = target: T3, human holotranscobalamin (holoTC) (human, UniProt P20062 19-427, cobalamin bound (holo form, non-covalent)); experiment: SPR; holoTC against apoTC
T3 construct: Recombinant human holoTC in the SPR work; also called holo-TCII
T3 chain: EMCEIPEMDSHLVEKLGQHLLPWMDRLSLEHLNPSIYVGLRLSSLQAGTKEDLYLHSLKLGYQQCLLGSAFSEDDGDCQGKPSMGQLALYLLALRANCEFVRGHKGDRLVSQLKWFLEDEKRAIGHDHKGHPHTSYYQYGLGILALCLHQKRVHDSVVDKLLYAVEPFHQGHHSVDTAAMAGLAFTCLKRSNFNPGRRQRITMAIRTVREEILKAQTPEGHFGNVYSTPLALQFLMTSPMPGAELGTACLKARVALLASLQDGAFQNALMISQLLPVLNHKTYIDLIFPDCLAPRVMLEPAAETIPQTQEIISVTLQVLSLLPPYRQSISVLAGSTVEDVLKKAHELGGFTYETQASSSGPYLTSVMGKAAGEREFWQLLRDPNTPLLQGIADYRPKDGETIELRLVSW

[9] = target: T4, human apotranscobalamin (apoTC) (human, UniProt P20062 19-427); experiment: SPR (BIAcore), antibody immobilised
T4 construct: Same chain as holoTC without cobalamin; also called apo-TCII
T4 chain: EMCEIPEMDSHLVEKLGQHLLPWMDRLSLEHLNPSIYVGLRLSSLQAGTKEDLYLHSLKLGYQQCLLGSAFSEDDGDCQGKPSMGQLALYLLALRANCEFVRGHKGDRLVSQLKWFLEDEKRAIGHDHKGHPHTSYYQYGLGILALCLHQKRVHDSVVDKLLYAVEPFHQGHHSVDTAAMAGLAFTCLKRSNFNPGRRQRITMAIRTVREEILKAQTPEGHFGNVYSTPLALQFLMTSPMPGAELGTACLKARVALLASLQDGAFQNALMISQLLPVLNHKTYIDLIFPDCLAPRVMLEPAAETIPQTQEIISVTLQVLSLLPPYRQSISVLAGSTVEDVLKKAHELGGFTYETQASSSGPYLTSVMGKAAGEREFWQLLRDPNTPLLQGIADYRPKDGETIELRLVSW

[10] = target: T3, human holotranscobalamin (holoTC); experiment: SPR (BIAcore), antibody immobilised
[11] = target: T4, human apotranscobalamin (apoTC); experiment: SPR (BIAcore), antibody immobilised; head read as 10^-4
[12] = target: T3, human holotranscobalamin (holoTC); experiment: as above
[13] = target: T3, human holotranscobalamin (holoTC); experiment: SPR (Biacore), mAb on chip, TC injected
[14] = target: T3, human holotranscobalamin (holoTC); experiment: SPR (Biacore); Kd values for holoTC
[15] = target: T3, human holotranscobalamin (holoTC); experiment: SPR, scFv injected over immobilised holoTC
Experimental: Selected scFv antibodies were evaluated by surface plasmon resonance essentially as described in Example 2. Purified antibody preparations were injected over a chip with immobilized holoTC. The holoTC chip was prepared by binding holoTC to a chip prepared as described in 2.1 or by binding biotinylated holoTC on a streptavidin coated SA chip (Biacore, Sweden).

[16] = target: T4, human apotranscobalamin (apoTC); experiment: SPR (BIAcore), scFv immobilised; head read as 10^-4
[17] = target: T3, human holotranscobalamin (holoTC); experiment: as above
[18] = target: T3, human holotranscobalamin (holoTC); experiment: SPR (BIAcore), scFv immobilised
monoclonal antibody TC2 = target: B2; experiment: SPR, mAb immobilised, phagemid injected (Table 5; 1 RU)
Experimental: as §1, §2

B1: phagemid CS1-31p (phage-displayed disulfide cyclized 13 mer peptide) (peptide)
peptide: CSFFYSLCYCWCS
modifications: disulfide (positions not given here); also: four Cys, disulfide pairing not given here
notes: also called CSI-31p
phagemid bound (RU) (monoclonal antibody 3-9): 0 RU
ELISA (absorbance units) (monoclonal antibody 3C4 [1]): 0.165 absorbance units
phagemid bound (RU) (monoclonal antibody 3C4 [2]): 42 RU
ELISA (absorbance units) (monoclonal antibody 3C4 [3]): 0.152 absorbance units
Block by holoTC (RU) (monoclonal antibody 3C4 [4]): 5 RU
Inhibition (%) (monoclonal antibody 3C4 [5]): 88%
Phage bound (RU) (monoclonal antibody 3C4 [6]): 42 RU
ELISA (absorbance units) (monoclonal antibody 3C4 [7]): 0.298 absorbance units

B2
holo/apo Specificity (-fold) [8]: 1 -fold
Ka [9]: 7e+07 M⁻¹
kon [9]: 100000 M⁻¹ s⁻¹
Ka [10]: 2.5e+08 M⁻¹
kon [10]: 100000 M⁻¹ s⁻¹
koff [11]: 0.0015 s⁻¹
koff [12]: 0.0004 s⁻¹
Kd [13]: 1 to 5 nM
Kd [14]: 1 to 5 nM

CSFRYQWDMFRCS (disulfide 1-12 (inferred); also: displayed on phage (phagemid)) [phagemid CS1-11p (phage-displayed disulfide cyclized 13 mer peptide)]
phagemid bound (RU) (monoclonal antibody 3-9): 0 RU
ELISA (absorbance units) (monoclonal antibody 3C4 [1]): 0.559 absorbance units
phagemid bound (RU) (monoclonal antibody 3C4 [2]): 32 RU
ELISA (absorbance units) (monoclonal antibody 3C4 [3]): 0.348 absorbance units
Block by holoTC (RU) (monoclonal antibody 3C4 [4]): 0 RU
Inhibition (%) (monoclonal antibody 3C4 [5]): 100%
Phage bound (RU) (monoclonal antibody 3C4 [6]): 32 RU
ELISA (absorbance units) (monoclonal antibody 3C4 [7]): 0.645 absorbance units

CSGLYPWDYFMCS (disulfide 1-12 (inferred); also: displayed on phage (phagemid)) [phagemid CS1-29p (phage-displayed disulfide cyclized 13 mer peptide)]
ELISA (absorbance units) (monoclonal antibody 3C4 [1]): 0.189 absorbance units
ELISA (absorbance units) (monoclonal antibody 3C4 [3]): 0.156 absorbance units
Block by holoTC (RU) (monoclonal antibody 3C4 [4]): 3 RU
Inhibition (%) (monoclonal antibody 3C4 [5]): 85%
Phage bound (RU) (monoclonal antibody 3C4 [6]): 20 RU
ELISA (absorbance units) (monoclonal antibody 3C4 [7]): 0.335 absorbance units

CSGLYPWDMFRCS (disulfide 1-12 (inferred); also: displayed on phage (phagemid)) [phagemid CS1-9p (phage-displayed disulfide cyclized 13 mer peptide)]
ELISA (absorbance units) (monoclonal antibody 3C4 [1]): 0.539 absorbance units
ELISA (absorbance units) (monoclonal antibody 3C4 [3]): 0.259 absorbance units
Block by holoTC (RU) (monoclonal antibody 3C4 [4]): 1 RU
Inhibition (%) (monoclonal antibody 3C4 [5]): 87%
Phage bound (RU) (monoclonal antibody 3C4 [6]): 35 RU
ELISA (absorbance units) (monoclonal antibody 3C4 [7]): 0.769 absorbance units

B3: phagemid CS1-2p (phage-displayed disulfide cyclized 13 mer peptide) (peptide)
peptide: CSLFYLWDQDRCS
modifications: disulfide 1-12 (inferred); also: displayed on phage (phagemid), coat fusion not given here
ELISA (absorbance units) (monoclonal antibody 3C4 [1]): 0.224 absorbance units
ELISA (absorbance units) (monoclonal antibody 3C4 [3]): 0.245 absorbance units
Phage bound (RU) (monoclonal antibody 3C4 [6]): 4 RU
ELISA (absorbance units) (monoclonal antibody 3C4 [7]): 0.287 absorbance units

B4: mutated scFv 3C4 clone 3.9G2 (scFv)
scFv: EVQLQESGPGLVKPSLSLSLICTVTGYSIASDYTWNWIRQFPGNKLEWMGYISYSGSTSYNPSLKSRISITRDTSKNQFFLQLNSVTTEDTATYYCARPYYYGIRGFAYWGQGTLVTVSAGGGGSGGGGSGGGGSDIQMTQSPASLSASVGETVTITCRASENIYSYLAWYQQIQGKSPQLLVYNSKTLTEGVPSRFSGSGSGTQFSLKINSLQPEDFGSYYCQHHYVTPYTFGGGTKLEIKR
notes: A190T stands in the next printed row (r19)
Kd [15]: 150 nM
koff [15]: 0.00059 s⁻¹
kon [15]: 3800 M⁻¹ s⁻¹

B5: single chain antibody fragment TC2_ScFv (scFv)
scFv: QVQLKQSGPGLLQPSQSLSITCTVSGFSLTYYGVHWVRQSPVKGLEWLGVIWSGGDTDYDTTFISRLSISKDNSKGQVFFKMTSLQTDDTAIYYCARGRTYGIHFDYWGQGTTLTVSSGGGGSGGGGSGGGGSDIVMSQSPSSLAVSVGEKVTMSCKSSQSLFNSRTRKNYLAWYQQKPGQSPKVLIYWASTRESGVPDRFTGSGSGTDFTLTISSVQAEDLAIYYCKQFYDLWTFGGGTKLEIKR
notes: A C-terminal tag may be present; also called scFv TC2
koff [16]: 0.0015 s⁻¹
koff [17]: 0.0015 s⁻¹
Ka [18]: 3e+06 M⁻¹
kon [18]: 4000 M⁻¹ s⁻¹

CSFRYLWDQDRCS (disulfide 1-12 (inferred); also: displayed on phage (phagemid)) [phagemid CS1-6p (phage-displayed disulfide cyclized 13 mer peptide)]
phagemid bound (RU) (monoclonal antibody 3-9): 0 RU
ELISA (absorbance units) (monoclonal antibody 3C4 [1]): 0.664 absorbance units
phagemid bound (RU) (monoclonal antibody 3C4 [2]): 45 RU
ELISA (absorbance units) (monoclonal antibody 3C4 [3]): 0.406 absorbance units
binding result (monoclonal antibody TC2): no binding
Block by holoTC (RU) (monoclonal antibody 3C4 [4]): 3 RU
Inhibition (%) (monoclonal antibody 3C4 [5]): 88%
Phage bound (RU) (monoclonal antibody 3C4 [6]): 24 RU
ELISA (absorbance units) (monoclonal antibody 3C4 [7]): 1.06 absorbance units
